Experimental data as given in US20020058637.

Tests used:
[1] = system: phosphorylated peptide p-K2
[2] = target: tau-protein extracted from bovine brain followed by purification (not phosphorylated by TPK-I) (UniProt P29172)
tau-protein extracted from bovine brain followed by purification (not phosphorylated by TPK-I), sequence (P29172 2-448): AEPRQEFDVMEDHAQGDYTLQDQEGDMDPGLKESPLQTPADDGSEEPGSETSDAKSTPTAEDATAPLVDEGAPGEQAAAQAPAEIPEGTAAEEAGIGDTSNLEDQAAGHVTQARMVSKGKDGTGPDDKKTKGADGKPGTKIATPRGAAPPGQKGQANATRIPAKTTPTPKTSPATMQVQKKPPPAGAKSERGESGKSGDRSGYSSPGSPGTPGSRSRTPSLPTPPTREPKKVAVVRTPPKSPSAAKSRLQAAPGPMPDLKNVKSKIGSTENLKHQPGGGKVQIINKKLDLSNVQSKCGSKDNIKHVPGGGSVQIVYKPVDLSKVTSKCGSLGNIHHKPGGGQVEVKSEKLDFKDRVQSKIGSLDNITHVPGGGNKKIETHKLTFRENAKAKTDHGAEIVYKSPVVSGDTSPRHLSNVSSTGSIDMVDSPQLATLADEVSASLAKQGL

**Q.** “recombinant human TPK-I expressed in Escherichia coli BL21(DE3) from pET3C/TPKI (partially purified)” was tested. Which phosphorylation of peptide [1] did it give?
**A.** Its phosphorylation of peptide is “the phosphorylation of p-Ka proceeded”.

**Q.** What about the “phosphoric acid incorporated into tau-protein (phosphorylating method I)” value [2] of the same substance?
**A.** Its value is 1.2 moles of phosphoric acid was incorporated into one molecule of tau-protein.

**Q.** And the phosphorylation of peptide (Peptide K2)?
**A.** Its phosphorylation of peptide is “that of K2 hardly proceeded”.

**Q.** “tau-protein kinase II (TPK-II) purified from bovine brain microtubule” was tested. Which “phosphorylation of peptide (phosphorylating method II)” value (Peptide K2) did it give?
**A.** The value was “phosphorylated peptide (hereinafter, abbreviated as "p-K2") was obtained”.

**Q.** “recombinant human-originated tau-protein kinase I expressed in Sf9 insect cells (partially purified)” was tested. Which “phosphorylation of peptide (phosphorylating method I)” value [1] did it give?
**A.** Its value is “the progress of phosphorylation of p-K2 was clearly noted”.

**Q.** What about the “amount of phosphoric acid incorporated in tau-protein (phosphorylating method I, 32P)” value [2] of the same substance?
**A.** The value was “incorporation of tau-protein into phosphoric acid was confirmed”.

**Q.** And the “initial speed of phosphorylation of peptide (phosphorylating method I)” value (Peptide K2)?
**A.** The value was “phosphorylation of K2 was slow and its initial speed was about one-tenth of that of p-K2”.
